The text below walks through data of IntAct's records for PubMed 15117939.

To fix the notation:
B1: Mannan-binding lectin serine protease 2 (Homo sapiens), O00187-2 (parent)
chain: MRLLTLLGLLCGSVATPLGPKWPEPVFGRLASPGFPGEYANDQERRWTLTAPPGYRLRLYFTHFDLELSHLCEYDFVKLSSGAKVLATLCGQESTDTERAPGKDTFYSLGSSLDITFRSDYSNEKPFTGFEAFYAAEDIDECQVAPGEAPTCDHHCHNHLGGFYCSCRAGYVLHRNKRTCSEQSL

Variants of B1 are the subject of the assay “mbl2_human MBL2, P11226”. The following applies: with mbl2_human MBL2, P11226.
Variants of B1 are the subject of the assay “fcn2_human FCN2, Q15485”. The following applies: with fcn2_human FCN2, Q15485.
Chain of fcn2_human FCN2, Q15485 (Q15485 whole entry): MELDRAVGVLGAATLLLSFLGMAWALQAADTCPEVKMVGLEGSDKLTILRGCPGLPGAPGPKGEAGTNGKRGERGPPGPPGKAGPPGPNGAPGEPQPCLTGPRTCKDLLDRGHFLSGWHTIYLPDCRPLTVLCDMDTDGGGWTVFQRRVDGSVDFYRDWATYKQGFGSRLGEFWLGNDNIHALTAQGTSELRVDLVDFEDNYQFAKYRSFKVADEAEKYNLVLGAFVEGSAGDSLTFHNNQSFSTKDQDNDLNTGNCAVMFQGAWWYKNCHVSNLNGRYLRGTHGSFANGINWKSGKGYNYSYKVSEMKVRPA

Chain of mbl2_human MBL2, P11226 (P11226 whole entry): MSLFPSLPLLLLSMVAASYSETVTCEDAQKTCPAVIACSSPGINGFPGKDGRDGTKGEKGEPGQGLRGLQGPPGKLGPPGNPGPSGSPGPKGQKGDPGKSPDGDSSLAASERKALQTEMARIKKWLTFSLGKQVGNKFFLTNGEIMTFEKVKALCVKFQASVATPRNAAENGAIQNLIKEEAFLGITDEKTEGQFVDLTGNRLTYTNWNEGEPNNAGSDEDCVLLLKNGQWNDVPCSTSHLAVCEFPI

Take MRLLTLLGLLCGSVATPLGPKWPEPVFGRLASPGFPGEYANDQERRWTLTAPPGYRLRLYFTHFDLELSHLCEYDFVKLSSGAKVLATLCGQESTDTERAPGKDTFYSLGSSLDITFRSDYSNEKPFTGFEAFYAAEDIDECQVAPGAAPTCDHHCHNHLGGFYCSCRAGYVLHRNKRTCSEQSL [E148A]: the “effect of a mutation on the interaction” value in the assay with mbl2_human MBL2, P11226 is “decreasing interaction strength”; with fcn2_human FCN2, Q15485 it was “decreasing interaction strength”.

Turning to MRLLTLLGLLCGSVATPLGPKWPEPVFGRLASPGFPGEYANDQERRWTLTAPPGYRLRLYFTHFDLELSHLCEYDFVKLSSGAKVLATLCGQESTNTERAPGKDTFYSLGSSLDITFRSDYSNEKPFTGFEAFYAAEDIDECQVAPGEAPTCDHHCHNHLGGFYCSCRAGYVLHRNKRTCSEQSL [D96N], the “effect of a mutation on the interaction” value with mbl2_human MBL2, P11226 was “with no effect”; with fcn2_human FCN2, Q15485 it was “with no effect”.

MRLLTLLGLLCGSVATPLGPKWPEPVFGRLASPGFPGEYANDQERRWTLTAPPGYRLRLYFTHFDLELSHLCAYDFVKLSSGAKVLATLCGQESTDTERAPGKDTFYSLGSSLDITFRSDYSNEKPFTGFEAFYAAEDIDECQVAPGEAPTCDHHCHNHLGGFYCSCRAGYVLHRNKRTCSEQSL [E73A]: the “effect of a mutation on the interaction” value is reported as “with no effect” with mbl2_human MBL2, P11226 and “with no effect” with fcn2_human FCN2, Q15485.

On to MRLLTLLGLLCGSVATPLGPKWPEPVFGRLASPGFPGEYANDQERRWTLTAPPGYRLRLYFTHFDLELSHLCEYDFVKLSSGAKVLATLCGQESTDTERAPGKDTFYSLGSSLDITFRSDASNEKPFTGFEAFYAAEDIDECQVAPGEAPTCDHHCHNHLGGFYCSCRAGYVLHRNKRTCSEQSL [Y121A], for which the “effect of a mutation on the interaction” value with mbl2_human MBL2, P11226 was “disrupting interaction strength”; with fcn2_human FCN2, Q15485 it was “disrupting interaction strength”.

As for MRLLTLLGLLCGSVATPLGPKWPEPVFGRLASPGFPGEYANDQERRWTLTAPPGYRLRLYFTHFDLELSHLCEYDFVKLSSGAKVLATLCGQESTDTERAPGKDTFYSLGSSLDITFRSDYSNAKPFTGFEAFYAAEDIDECQVAPGEAPTCDHHCHNHLGGFYCSCRAGYVLHRNKRTCSEQSL [E124A], the “effect of a mutation on the interaction” value with mbl2_human MBL2, P11226 is listed as “decreasing interaction strength”; with fcn2_human FCN2, Q15485, “with no effect”.

As to MRLLTLLGLLCGSVATPLGPKWPEPVFGRLASPGFPGEYANDQERRWTLTAPPGYALRLYFTHFDLELSHLCEYDFVKLSSGAKVLATLCGQESTDTERAPGKDTFYSLGSSLDITFRSDYSNEKPFTGFEAFYAAEDIDECQVAPGEAPTCDHHCHNHLGGFYCSCRAGYVLHRNKRTCSEQSL [R56A], the “effect of a mutation on the interaction” value was “with no effect” with mbl2_human MBL2, P11226 and “with no effect” with fcn2_human FCN2, Q15485.

For the variant MRLLTLLGLLCGSVATPLGPKWPEPVFGRLASPGFPGEYANDQERRWTLTAPPGYRLRLYFTHFDLELSHLCEYDFVKLSSGAKVLATLCGQQSTDTERAPGKDTFYSLGSSLDITFRSDYSNEKPFTGFEAFYAAEDIDECQVAPGEAPTCDHHCHNHLGGFYCSCRAGYVLHRNKRTCSEQSL [E93Q], the “effect of a mutation on the interaction” value with mbl2_human MBL2, P11226 is recorded as “with no effect”; in the assay with fcn2_human FCN2, Q15485, “with no effect”.

Turning to MRLLTLLGLLCGSVATPLGPKWPEPVFGRLASPGFPGEYANDQERRWTLTAPPGYRLRLYFTHFDLELSHLCEYDFVKLSSGAKVLATLCGQESTDTARAPGKDTFYSLGSSLDITFRSDYSNEKPFTGFEAFYAAEDIDECQVAPGEAPTCDHHCHNHLGGFYCSCRAGYVLHRNKRTCSEQSL [E98A], the “effect of a mutation on the interaction” value with mbl2_human MBL2, P11226 is on record as “decreasing interaction strength”; with fcn2_human FCN2, Q15485 it was “decreasing interaction strength”.

MRLLTLLGLLCGSVATPLGPKWPEPVFGRLASPGFPGEYANDQERRWTLTAPPGYRLRLYFTHFDLELSHLCEYAFVKLSSGAKVLATLCGQESTDTERAPGKDTFYSLGSSLDITFRSDYSNEKPFTGFEAFYAAEDIDECQVAPGEAPTCDHHCHNHLGGFYCSCRAGYVLHRNKRTCSEQSL [D75A]: the “effect of a mutation on the interaction” value with mbl2_human MBL2, P11226 is on record as “decreasing interaction strength”; in the assay with fcn2_human FCN2, Q15485, “decreasing interaction strength”.

For the variant MRLLTLLGLLCGSVATPLGPKWPEPVFGRLASPGFPGEYANDQERRWTLTAPPGYRLRLYFTHFDLELSHLCEYDFVKLSSGAKVLATLCGQESTDTERAPGKDTFYSLGSSLDITFRSGYSNEKPFTGFEAFYAAEDIDECQVAPGEAPTCDHHCHNHLGGFYCSCRAGYVLHRNKRTCSEQSL [D120G], the “effect of a mutation on the interaction” value with mbl2_human MBL2, P11226 is “disrupting interaction strength”; with fcn2_human FCN2, Q15485, “disrupting interaction strength”.

Turning to MRLLTLLGLLCGSVATPLGPKWPEPVFGRLASPGFPGEYANDQERRWTLTAPPGYRLRLYFTHFDLELSALCEYDFVKLSSGAKVLATLCGQESTDTERAPGKDTFYSLGSSLDITFRSDYSNEKPFTGFEAFYAAEDIDECQVAPGEAPTCDHHCHNHLGGFYCSCRAGYVLHRNKRTCSEQSL [H70A], the “effect of a mutation on the interaction” value in the assay with mbl2_human MBL2, P11226 is on record as “with no effect”; with fcn2_human FCN2, Q15485 it was “with no effect”.

As for MRLLTLLGLLCGSVATPLGPKWPEPVFGRLASPGFPGEYANDQERRWTLTAPPGYRLRLYFTHFDLELSHLCEADFVKLSSGAKVLATLCGQESTDTERAPGKDTFYSLGSSLDITFRSDYSNEKPFTGFEAFYAAEDIDECQVAPGEAPTCDHHCHNHLGGFYCSCRAGYVLHRNKRTCSEQSL [Y74A], the “effect of a mutation on the interaction” value is listed as “disrupting interaction strength” with mbl2_human MBL2, P11226 and “disrupting interaction strength” in the assay with fcn2_human FCN2, Q15485.
